Read-outs that look alike come from different tables or passages of the source.
T1: GST-ABP9 (Zea mays, UniProt D2KNW6 1-385)
T1 sequence: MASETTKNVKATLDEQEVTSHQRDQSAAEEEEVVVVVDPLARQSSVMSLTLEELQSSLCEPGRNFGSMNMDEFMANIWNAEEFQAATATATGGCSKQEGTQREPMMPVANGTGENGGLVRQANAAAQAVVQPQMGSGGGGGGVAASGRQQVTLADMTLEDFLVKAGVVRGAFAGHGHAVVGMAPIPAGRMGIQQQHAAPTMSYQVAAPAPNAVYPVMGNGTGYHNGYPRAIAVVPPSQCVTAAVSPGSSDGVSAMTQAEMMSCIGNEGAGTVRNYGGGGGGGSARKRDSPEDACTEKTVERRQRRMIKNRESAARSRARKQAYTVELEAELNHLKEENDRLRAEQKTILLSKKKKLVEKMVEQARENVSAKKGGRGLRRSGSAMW

B1: mABRE2 (dsDNA)
DNA 1: GAAGTAACATGTTCGGTGG
DNA 2: CCACCGAACATGTTACTTC
B2: ABRE2 (dsDNA)
DNA 1: GAAGTCCACGTGGAGGTGG
DNA 2: CCACCTCCACGTGGACTTC

Tests used:
GST-ABP9 [1] = molecular target: T1, GST-ABP9; assay: EMSA
GST-ABP9 [2] = molecular target: T1, GST-ABP9; assay: EMSA; remark: listed apart in the source

Binder | binding result (GST-ABP9 [1]) | binding result (GST-ABP9 [2])
B1 | no binding | 
B2 |  | binds

Source: PMC3044229
